Results reported in publication PMC4429025, “Characterization of Mutants of Human Small Heat Shock Protein HspB1 Carrying Replacements in the N-Terminal Domain and Associated with Hereditary Motor Neuron Diseases” (PLoS ONE, 2015).

Legend:
Assay in all cases: cross-linking; disulfide crosslinking: reduced proteins alone or mixed at 30 uM per monomer each, 1 h at 42°C, then dialysis against 50 mM Tris/HCl pH 7.4, 50 mM KCl, 1 mM MgCl2, 0.1 mM PMSF at 4, 15 or 37°C; non-reducing SDS PAGE
Details in all cases: both partners purified
P39L mutant of HspB1 = molecular target: T1, P39L mutant of HspB1 (human, UniProt P04792 1-205, P39L)
T1 construct: human HspB1 with the disease-associated replacement P39L, in pET23b (NdeI/XhoI); Mutation occurs in patients with type II Charcot-Marie-Tooth disease or dHMN; source: E. coli BL21 (DE3) pLysS, purified (ammonium sulfate fractionation, HiTrap Q, Superdex 200)

G34R mutant of HspB1 = molecular target: T2, G34R mutant of HspB1 (human, UniProt P04792 1-205, G34R)
T2 construct: human HspB1 with the disease-associated replacement G34R, in pET23b (NdeI/XhoI); Mutation occurs in patients with distal hereditary motor neuropathy; source: E. coli BL21 (DE3) pLysS, purified (ammonium sulfate fractionation, HiTrap Q, Superdex 200)

E41K mutant of HspB1 = molecular target: T3, E41K mutant of HspB1 (human, UniProt P04792 1-205, E41K)
T3 construct: human HspB1 with the disease-associated replacement E41K, in pET23b (NdeI/XhoI); Mutation occurs in patients with distal hereditary motor neuropathy; source: E. coli BL21 (DE3) pLysS, purified (ammonium sulfate fractionation, HiTrap Q, Superdex 200)

[1] = molecular target: T4, wild type HspB1 (human small heat shock protein HspB1) (human, UniProt P04792 1-205)
T4 construct: human small heat shock protein HspB1, wild type, cDNA in pET23b; also called WT HspB1; WT; source: E. coli BL21 (DE3) pLysS, purified (ammonium sulfate fractionation, HiTrap Q, Superdex 200)

Measured: binding result

T4 sequence (P04792 whole entry): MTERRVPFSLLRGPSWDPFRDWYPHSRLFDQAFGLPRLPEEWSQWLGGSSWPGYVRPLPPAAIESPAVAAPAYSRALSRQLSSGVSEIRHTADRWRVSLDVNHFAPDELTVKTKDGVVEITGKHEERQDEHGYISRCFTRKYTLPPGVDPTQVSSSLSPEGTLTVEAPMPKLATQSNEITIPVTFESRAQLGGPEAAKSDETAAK
T2 sequence (P04792 whole entry G34R): as the sequence (P04792 whole entry) above, with G34R counted along it
T1 sequence (P04792 whole entry P39L): as the sequence (P04792 whole entry) above, with P39L counted along it
T3 sequence (P04792 whole entry E41K): as the sequence (P04792 whole entry) above, with E41K counted along it

B1: double mutant of HspB6 containing the substitutions C46S/E116C (natural protein, human, UniProt O14558 1-160, looked up)
chain: MEIPVPVQPSWLRRASAPLPGLSAPGRLFDQRFGEGLLEAELAALSPTTLAPYYLRAPSVALPVAQVPTDPGHFSVLLDVKHFSPEEIAVKVVGEHVEVHARHEERPDEHGFVARCFHRRYRLPPGVDPAAVTSALSPEGVLSIQAAPASAQAPPPAAAK
notes: HspB6 lacking the natural Cys of the N-terminal domain and with a single Cys at the position homologous to Cys137 of HspB1; also called Cys mutant of HspB6; Cys-mutant of HspB6; source: expressed and purified as described earlier [36]
binds: P39L mutant of HspB1 | G34R mutant of HspB1 | E41K mutant of HspB1 | [1]
